{
  "source": "patent US12338277",
  "experiment_in_all_cases": "cell-based or functional assay",
  "key": {"[1]": {"molecular_target": "HIV-1 envelope of pseudovirus 211-9 (HIV-1)"}, "[2]": {"molecular_target": "HIV-1 Env of pseudovirus ZM249M.PL1 (HIV-1)"}, "[3]": {"molecular_target": "HIV-1 Env of pseudovirus CNE52 (HIV-1)"}, "[4]": {"molecular_target": "HIV-1 envelope of pseudovirus C3347.c11 (HIV-1)"}, "[5]": {"molecular_target": "HIV-1 envelope spike of pseudovirus QH0692.42 (HIV-1)"}, "[6]": {"molecular_target": "HIV-1 envelope spike of pseudovirus YU-2 (HIV-1) (UniProt P35961)", "sequence (P35961 32-843)": "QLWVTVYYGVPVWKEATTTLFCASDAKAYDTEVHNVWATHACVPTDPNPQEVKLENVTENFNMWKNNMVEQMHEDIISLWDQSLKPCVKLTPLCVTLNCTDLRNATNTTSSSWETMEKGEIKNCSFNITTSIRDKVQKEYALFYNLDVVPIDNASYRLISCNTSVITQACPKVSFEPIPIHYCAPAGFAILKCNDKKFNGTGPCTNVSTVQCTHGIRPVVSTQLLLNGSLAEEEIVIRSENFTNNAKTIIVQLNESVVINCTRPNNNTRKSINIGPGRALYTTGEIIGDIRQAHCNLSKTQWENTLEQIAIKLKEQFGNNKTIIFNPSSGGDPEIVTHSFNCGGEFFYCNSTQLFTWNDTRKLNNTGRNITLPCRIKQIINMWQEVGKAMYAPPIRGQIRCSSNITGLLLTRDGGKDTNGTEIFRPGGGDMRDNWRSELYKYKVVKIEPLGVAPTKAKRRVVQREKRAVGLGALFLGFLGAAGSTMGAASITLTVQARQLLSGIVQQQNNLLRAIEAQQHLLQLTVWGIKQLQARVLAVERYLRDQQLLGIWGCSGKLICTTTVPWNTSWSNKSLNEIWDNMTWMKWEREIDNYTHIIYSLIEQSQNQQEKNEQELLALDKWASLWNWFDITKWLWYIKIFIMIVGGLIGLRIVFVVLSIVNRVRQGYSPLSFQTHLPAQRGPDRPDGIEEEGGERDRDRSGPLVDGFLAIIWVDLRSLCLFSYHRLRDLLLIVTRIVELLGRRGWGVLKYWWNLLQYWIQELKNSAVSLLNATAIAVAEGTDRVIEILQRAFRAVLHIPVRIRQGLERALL"}, "[7]": {"molecular_target": "HIV-1 Env of pseudovirus QH0692.42 (HIV-1)"}, "[8]": {"molecular_target": "HIV-1 Env of pseudovirus 249M B10 (HIV-1)"}, "[9]": {"molecular_target": "HIV-1 envelope of pseudovirus 6480.v4.c25 (HIV-1)"}, "[10]": {"molecular_target": "HIV-1 Env of pseudovirus HIV-16055-2.3 (HIV-1)"}, "[11]": {"molecular_target": "HIV-1 Env of pseudovirus Ce0682_E4 (HIV-1)"}, "[12]": {"molecular_target": "HIV-1 Env of pseudovirus 620345.c01 (HIV-1)"}, "[13]": {"molecular_target": "HIV-1 Env of pseudovirus C2101.c01 (HIV-1)"}, "[14]": {"molecular_target": "HIV-1 Env of pseudovirus 231965.c01 (HIV-1)"}, "[15]": {"molecular_target": "HIV-1 Env of pseudovirus CAP210.2.00.E8 (HIV-1)"}, "[16]": {"molecular_target": "HIV-1 Env of pseudovirus CNE8 (HIV-1)"}, "[17]": {"molecular_target": "HIV-1 envelope of pseudovirus P1981_C5_3 (HIV-1)"}, "[18]": {"molecular_target": "HIV-1 Env of pseudovirus 3016.v5.c45 (HIV-1)"}, "[19]": {"molecular_target": "HIV-1 Env of pseudovirus REJO4541.67 (HIV-1)"}, "[20]": {"molecular_target": "HIV-1 envelope of pseudovirus C2101.c01 (HIV-1)"}, "[21]": {"molecular_target": "HIV-1 envelope of pseudovirus C1080.c03 (HIV-1)"}, "[22]": {"molecular_target": "HIV-1 envelope of pseudovirus RHPA4259.7 (HIV-1)"}, "[23]": {"molecular_target": "HIV-1 envelope of pseudovirus 191821_E6_1 (HIV-1)"}, "[24]": {"molecular_target": "HIV-1 envelope of pseudovirus 191084 B7-19 (HIV-1)"}, "[25]": {"molecular_target": "HIV-1 Env of pseudovirus AC10.0.29 (HIV-1)"}, "[26]": {"molecular_target": "HIV-1 Env of pseudovirus 191084 B7-19 (HIV-1)"}, "[27]": {"molecular_target": "HIV-1 envelope of pseudovirus C4118.c09 (HIV-1)"}, "[28]": {"molecular_target": "HIV-1 Env of pseudovirus CNE20 (HIV-1)"}, "[29]": {"molecular_target": "HIV-1 Env of pseudovirus CNE58 (HIV-1)"}, "[30]": {"molecular_target": "HIV-1 Env of pseudovirus Q769.d22 (HIV-1)"}, "[31]": {"molecular_target": "HIV-1 envelope of pseudovirus 249M B10 (HIV-1)"}, "[32]": {"molecular_target": "HIV-1 envelope spike of pseudovirus TRJO4551.58 (HIV-1)"}, "[33]": {"molecular_target": "HIV-1 Env of pseudovirus 6480.v4.c25 (HIV-1)"}, "[34]": {"molecular_target": "HIV-1 Env of pseudovirus BF1266.431a (HIV-1)"}, "[35]": {"molecular_target": "HIV-1 envelope spike of pseudovirus PVO.4 (HIV-1)"}, "[36]": {"molecular_target": "HIV-1 Env of pseudovirus RHPA4259.7 (HIV-1)"}, "[37]": {"molecular_target": "HIV-1 Env of pseudovirus WEAU_d15_410_787 (HIV-1)"}, "[38]": {"molecular_target": "HIV-1 Env of pseudovirus T251-18 (HIV-1)"}, "[39]": {"molecular_target": "HIV-1 Env of pseudovirus 246F C1G (HIV-1)"}, "[40]": {"molecular_target": "HIV-1 Env of pseudovirus 1394C9G1(Rev-) (HIV-1)"}, "[41]": {"molecular_target": "HIV-1 envelope of pseudovirus T251-18 (HIV-1)"}, "[42]": {"molecular_target": "HIV-1 envelope of pseudovirus 6244_13_85_4576 (HIV-1)"}, "[43]": {"molecular_target": "HIV-1 Env of pseudovirus 6811.v7.c18 (HIV-1)"}, "[44]": {"molecular_target": "HIV-1 Env of pseudovirus Du156.12 (HIV-1)"}, "[45]": {"molecular_target": "HIV-1 Env of pseudovirus HIV-16845-2.22 (HIV-1)"}, "[46]": {"molecular_target": "HIV-1 envelope of pseudovirus YU-2 (HIV-1)"}, "[47]": {"molecular_target": "HIV-1 Env of pseudovirus 6244_13_85_4576 (HIV-1)"}, "[48]": {"molecular_target": "HIV-1 envelope of pseudovirus Q842.d12 (HIV-1)"}, "[49]": {"molecular_target": "HIV-1 Env of pseudovirus R1166.c01 (HIV-1)"}, "[50]": {"molecular_target": "HIV-1 Env of pseudovirus 6540.v4.c1 (HIV-1)"}},
  "data": [
    {"substance": "PGT121 (antibody)", "values": [
      {"measurement": "IC50 (TZM-bl neutralization)", "setting": "[1]", "result": 1.46, "unit": "µg/mL"},
      {"measurement": "IC80 (TZM-bl neutralization)", "setting": "[2]", "result": "> 50", "unit": "µg/mL"},
      {"measurement": "IC80 (TZM-bl neutralization)", "setting": "[3]", "result": 32.9, "unit": "µg/mL"},
      {"measurement": "IC50 (TZM-bl neutralization)", "setting": "[4]", "result": "> 50", "unit": "µg/mL"},
      {"measurement": "IC50 (TZM-bl neutralization assay)", "setting": "[5]", "result": 1.08, "unit": "µg/mL"},
      {"measurement": "IC50 (TZM-bl neutralization assay)", "setting": "[6]", "result": 0.098, "unit": "µg/mL"},
      {"measurement": "IC80 (TZM-bl neutralization assay)", "setting": "[6]", "result": 0.356, "unit": "µg/mL"},
      {"measurement": "IC80 (TZM-bl neutralization)", "setting": "[7]", "result": 8.54, "unit": "µg/mL"},
      {"measurement": "IC80 (TZM-bl neutralization)", "setting": "[8]", "result": "> 50", "unit": "µg/mL"},
      {"measurement": "IC50 (TZM-bl neutralization)", "setting": "[9]", "result": 0.017, "unit": "µg/mL"},
      {"measurement": "IC80 (TZM-bl neutralization)", "setting": "[10]", "result": 4.29, "unit": "µg/mL"},
      {"measurement": "IC80 (TZM-bl neutralization)", "setting": "[11]", "result": "> 50", "unit": "µg/mL"},
      {"measurement": "IC80 (TZM-bl neutralization)", "setting": "[12]", "result": "> 50", "unit": "µg/mL"},
      {"measurement": "IC80 (TZM-bl neutralization)", "setting": "[13]", "result": "> 50", "unit": "µg/mL"},
      {"measurement": "IC80 (TZM-bl neutralization)", "setting": "[14]", "result": "> 50", "unit": "µg/mL"},
      {"measurement": "IC80 (TZM-bl neutralization)", "setting": "[15]", "result": "> 50", "unit": "µg/mL"},
      {"measurement": "IC80 (TZM-bl neutralization)", "setting": "[16]", "result": "> 50", "unit": "µg/mL"},
      {"measurement": "IC50 (TZM-bl neutralization)", "setting": "[17]", "result": 0.004, "unit": "µg/mL"},
      {"measurement": "IC80 (TZM-bl neutralization)", "setting": "[18]", "result": "> 50", "unit": "µg/mL"},
      {"measurement": "IC80 (TZM-bl neutralization)", "setting": "[19]", "result": "> 50", "unit": "µg/mL"},
      {"measurement": "IC50 (TZM-bl neutralization)", "setting": "[20]", "result": "> 50", "unit": "µg/mL"},
      {"measurement": "IC50 (TZM-bl neutralization)", "setting": "[21]", "result": "> 50", "unit": "µg/mL"},
      {"measurement": "IC50 (TZM-bl neutralization)", "setting": "[22]", "result": 0.014, "unit": "µg/mL"},
      {"measurement": "IC50 (TZM-bl neutralization)", "setting": "[23]", "result": "> 50", "unit": "µg/mL"},
      {"measurement": "IC50 (TZM-bl neutralization)", "setting": "[24]", "result": 0.042, "unit": "µg/mL"},
      {"measurement": "IC80 (TZM-bl neutralization)", "setting": "[25]", "result": 0.169, "unit": "µg/mL"},
      {"measurement": "IC80 (TZM-bl neutralization)", "setting": "[26]", "result": 0.128, "unit": "µg/mL"},
      {"measurement": "IC50 (TZM-bl neutralization)", "setting": "[27]", "result": "> 50", "unit": "µg/mL"},
      {"measurement": "IC80 (TZM-bl neutralization)", "setting": "[28]", "result": 0.008, "unit": "µg/mL"},
      {"measurement": "IC80 (TZM-bl neutralization)", "setting": "[29]", "result": "> 50", "unit": "µg/mL"},
      {"measurement": "IC80 (TZM-bl neutralization)", "setting": "[30]", "result": "> 50", "unit": "µg/mL"},
      {"measurement": "IC50 (TZM-bl neutralization)", "setting": "[31]", "result": "> 50", "unit": "µg/mL"},
      {"measurement": "IC50 (TZM-bl neutralization assay)", "setting": "[32]", "result": 3.9, "unit": "µg/mL"},
      {"measurement": "IC80 (TZM-bl neutralization assay)", "setting": "[32]", "result": 26.9, "unit": "µg/mL"},
      {"measurement": "IC80 (TZM-bl neutralization)", "setting": "[33]", "result": 0.079, "unit": "µg/mL"},
      {"measurement": "IC80 (TZM-bl neutralization)", "setting": "[34]", "result": "> 50", "unit": "µg/mL"},
      {"measurement": "IC50 (TZM-bl neutralization assay)", "setting": "[35]", "result": 0.147, "unit": "µg/mL"},
      {"measurement": "IC80 (TZM-bl neutralization assay)", "setting": "[35]", "result": 1.1, "unit": "µg/mL"},
      {"measurement": "IC80 (TZM-bl neutralization)", "setting": "[36]", "result": 0.054, "unit": "µg/mL"},
      {"measurement": "IC80 (TZM-bl neutralization)", "setting": "[37]", "result": 0.295, "unit": "µg/mL"},
      {"measurement": "IC80 (TZM-bl neutralization)", "setting": "[38]", "result": "> 50", "unit": "µg/mL"},
      {"measurement": "IC80 (TZM-bl neutralization)", "setting": "[39]", "result": 0.287, "unit": "µg/mL"},
      {"measurement": "IC80 (TZM-bl neutralization)", "setting": "[40]", "result": 3.37, "unit": "µg/mL"},
      {"measurement": "IC50 (TZM-bl neutralization)", "setting": "[41]", "result": "> 50", "unit": "µg/mL"},
      {"measurement": "IC50 (TZM-bl neutralization)", "setting": "[42]", "result": 0.249, "unit": "µg/mL"},
      {"measurement": "IC80 (TZM-bl neutralization)", "setting": "[43]", "result": 0.017, "unit": "µg/mL"},
      {"measurement": "IC80 (TZM-bl neutralization)", "setting": "[44]", "result": 0.033, "unit": "µg/mL"},
      {"measurement": "IC80 (TZM-bl neutralization)", "setting": "[45]", "result": "> 50", "unit": "µg/mL"},
      {"measurement": "IC50 (TZM-bl neutralization)", "setting": "[46]", "result": 0.098, "unit": "µg/mL"},
      {"measurement": "IC80 (TZM-bl neutralization)", "setting": "[47]", "result": 1.88, "unit": "µg/mL"},
      {"measurement": "IC50 (TZM-bl neutralization)", "setting": "[48]", "result": 0.023, "unit": "µg/mL"},
      {"measurement": "IC80 (TZM-bl neutralization)", "setting": "[49]", "result": "> 50", "unit": "µg/mL"},
      {"measurement": "IC80 (TZM-bl neutralization)", "setting": "[50]", "result": "> 50", "unit": "µg/mL"}
    ]}
  ]
}
